The results in this text go back to publication PMC5727262, “Molecular mechanism of K65 acetylation-induced attenuation of Ubc9 and the NDSM interaction” (Scientific Reports, 2017).

The target in experiment [1] is Ac-Ubc9K65 (Ubc9 acetylated at K65) (UniProt P63279). As to the kind of experiment: ITC; 2 μl additions of peptide to 200 μl of WT Ubc9 or Ac-Ubc9K65; 25 °C; pH 8.0, 20 mM potassium phosphate, 100 mM NaCl; iTC200; fitted assuming 1:1 binding stoichiometry. A general note: Isothermal titration calorimetry measures the heat released or taken up as one component is titrated into another.

The target in experiment [2] is Ubc9 (wild type) (UniProt P63279). The experiment is described as above.

In general, Kd refers to a measure of binding affinity in units of concentration. Read a low Kd as higher affinity.

Sequence of Ubc9 (wild type) (P63279 whole entry): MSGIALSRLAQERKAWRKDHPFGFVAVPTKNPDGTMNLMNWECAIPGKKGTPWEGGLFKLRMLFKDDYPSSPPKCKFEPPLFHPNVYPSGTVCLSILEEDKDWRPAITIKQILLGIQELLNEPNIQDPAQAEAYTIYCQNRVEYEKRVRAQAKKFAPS
Sequence of Ac-Ubc9K65 (Ubc9 acetylated at K65) (P63279 whole entry): as above

On to Calpain2 NDSM peptide, for which the Kd in experiment [1] is 80 µM; in experiment [2], 56 µM.

For “Elk1 NDSM peptide (from UniProt P19419 242-261)”, the Kd in experiment [1] is 103 µM; in experiment [2], 70 µM.

Consider “RanGAP1 peptide (consensus sumoylation motif) (from UniProt P46060 517-536)”, for which the Kd in experiment [1] and in experiment [2] was 13 µM throughout.
